Experimental data published in the supplement of paper PMC6379048.

Key:
Experiment in all cases: EC50 of free RNA motif oligo competing protein binding to immobilised probe
[1] = molecular target: T1, NONO (UniProt Q15233)
T1 sequence: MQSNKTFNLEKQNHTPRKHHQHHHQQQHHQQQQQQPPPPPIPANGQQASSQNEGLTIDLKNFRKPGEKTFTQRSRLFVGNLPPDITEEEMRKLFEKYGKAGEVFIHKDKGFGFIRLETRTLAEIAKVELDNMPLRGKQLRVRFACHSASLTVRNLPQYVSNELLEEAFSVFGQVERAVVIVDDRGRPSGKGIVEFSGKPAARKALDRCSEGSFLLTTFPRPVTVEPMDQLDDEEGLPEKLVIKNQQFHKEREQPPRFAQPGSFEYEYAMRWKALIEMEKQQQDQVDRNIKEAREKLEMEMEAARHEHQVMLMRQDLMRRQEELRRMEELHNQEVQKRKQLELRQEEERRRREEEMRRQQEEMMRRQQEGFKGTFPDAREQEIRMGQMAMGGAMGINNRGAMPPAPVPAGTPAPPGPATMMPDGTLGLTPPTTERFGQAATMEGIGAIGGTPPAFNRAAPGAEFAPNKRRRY
Procedure, shortened: (§1)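 Free RNA oligos (0 nM to 30 μM) were pre-incubated with HEK293-FT lysate (2.5 mg protein/well) for 1 h at 4°C, followed by 30 min at 4°C with the same 5′-amino-C6 oligos coupled to NHS-Sepharose beads. Bound proteins were quantified by label-free LC-MS/MS and normalised to the control. EC50 was derived from a four-parameter log-logistic fit, and Kd was obtained by multiplying EC50 by a protein-dependent depletion factor.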

[2] = molecular target: T2, SYMPK (UniProt Q92797)
T2 sequence: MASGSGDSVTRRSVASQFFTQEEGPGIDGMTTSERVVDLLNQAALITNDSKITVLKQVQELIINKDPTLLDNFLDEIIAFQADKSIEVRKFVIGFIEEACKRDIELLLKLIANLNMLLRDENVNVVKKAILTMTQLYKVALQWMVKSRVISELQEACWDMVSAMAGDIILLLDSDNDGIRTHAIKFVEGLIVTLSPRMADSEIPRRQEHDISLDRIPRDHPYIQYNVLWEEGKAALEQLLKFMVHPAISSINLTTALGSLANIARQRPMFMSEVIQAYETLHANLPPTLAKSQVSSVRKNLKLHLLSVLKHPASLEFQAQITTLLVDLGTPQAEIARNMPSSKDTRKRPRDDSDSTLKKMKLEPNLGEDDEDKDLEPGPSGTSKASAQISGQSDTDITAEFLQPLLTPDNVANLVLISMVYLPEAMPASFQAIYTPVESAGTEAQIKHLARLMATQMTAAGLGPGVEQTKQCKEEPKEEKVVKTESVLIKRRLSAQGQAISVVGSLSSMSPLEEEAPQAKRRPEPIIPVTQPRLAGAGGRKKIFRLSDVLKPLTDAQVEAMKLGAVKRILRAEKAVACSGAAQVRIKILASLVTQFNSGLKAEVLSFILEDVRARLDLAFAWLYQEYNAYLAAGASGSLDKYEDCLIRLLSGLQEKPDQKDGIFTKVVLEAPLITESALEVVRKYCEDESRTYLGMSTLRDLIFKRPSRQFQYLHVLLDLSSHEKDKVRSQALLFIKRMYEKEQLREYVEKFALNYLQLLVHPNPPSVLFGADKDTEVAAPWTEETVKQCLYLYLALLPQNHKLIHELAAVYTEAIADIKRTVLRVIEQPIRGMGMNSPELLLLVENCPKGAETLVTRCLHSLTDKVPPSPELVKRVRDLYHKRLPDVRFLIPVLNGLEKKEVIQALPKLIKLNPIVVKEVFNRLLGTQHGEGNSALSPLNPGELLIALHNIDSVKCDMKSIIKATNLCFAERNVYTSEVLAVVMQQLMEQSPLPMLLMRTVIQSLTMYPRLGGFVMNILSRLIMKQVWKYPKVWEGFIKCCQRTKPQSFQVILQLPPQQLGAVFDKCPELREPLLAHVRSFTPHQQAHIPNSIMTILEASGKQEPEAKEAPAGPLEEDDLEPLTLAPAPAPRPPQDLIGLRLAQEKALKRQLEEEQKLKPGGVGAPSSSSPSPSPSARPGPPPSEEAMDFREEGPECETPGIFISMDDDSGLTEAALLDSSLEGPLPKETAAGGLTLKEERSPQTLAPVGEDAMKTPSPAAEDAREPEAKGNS
Procedure, shortened: as §1

[3] = molecular target: RPS25 (UniProt P62851)
Procedure, shortened: as §1

[4] = molecular target: T3, PRPF31 (UniProt Q8WWY3)
T3 sequence: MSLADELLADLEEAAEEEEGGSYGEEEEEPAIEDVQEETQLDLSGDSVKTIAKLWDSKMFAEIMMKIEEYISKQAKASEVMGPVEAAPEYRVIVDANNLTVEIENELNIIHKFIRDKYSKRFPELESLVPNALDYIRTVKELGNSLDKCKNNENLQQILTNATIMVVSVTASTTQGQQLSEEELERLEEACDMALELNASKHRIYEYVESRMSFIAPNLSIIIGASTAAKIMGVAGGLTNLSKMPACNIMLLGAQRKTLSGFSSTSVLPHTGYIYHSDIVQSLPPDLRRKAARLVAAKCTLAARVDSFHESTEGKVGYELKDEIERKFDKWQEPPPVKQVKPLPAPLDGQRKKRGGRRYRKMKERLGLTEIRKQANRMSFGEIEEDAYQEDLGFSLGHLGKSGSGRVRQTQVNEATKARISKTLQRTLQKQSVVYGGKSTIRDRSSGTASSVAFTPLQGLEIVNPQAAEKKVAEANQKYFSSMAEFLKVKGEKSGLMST
Procedure, shortened: as §1

AAUAAA
EC50 [1]: 0.302 nM
EC50 [2]: 116 nM

CUGUCCU
EC50 [3]: 72.5 nM

UAUUUAU
EC50 [4]: 5840 nM
